Source: PMC2180222 (The Journal of Cell Biology, 2000)

Biological target: the molecule itself
Assay: negative-stain electron microscopy

B1: HIV-1 Rev (natural protein, UniProt P04616 1-116, looked up)
chain: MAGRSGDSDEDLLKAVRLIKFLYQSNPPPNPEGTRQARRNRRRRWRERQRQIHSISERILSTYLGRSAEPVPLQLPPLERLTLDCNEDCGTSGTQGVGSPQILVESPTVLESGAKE
B1: binds.
